Here are results for one molecule from publication PMC4320033 (Nature, 2015).

The target in the test is N-ethylmaleimide Sensitive Factor (NSF), Chinese hamster, full-length, His-tag cleaved, reassembled hexamer (Chinese hamster, UniProt P18708 1-744). Kind of test: cryo-EM structure.
N-ethylmaleimide Sensitive Factor (NSF), Chinese hamster, full-length, His-tag cleaved, reassembled hexamer, sequence (P18708 whole entry): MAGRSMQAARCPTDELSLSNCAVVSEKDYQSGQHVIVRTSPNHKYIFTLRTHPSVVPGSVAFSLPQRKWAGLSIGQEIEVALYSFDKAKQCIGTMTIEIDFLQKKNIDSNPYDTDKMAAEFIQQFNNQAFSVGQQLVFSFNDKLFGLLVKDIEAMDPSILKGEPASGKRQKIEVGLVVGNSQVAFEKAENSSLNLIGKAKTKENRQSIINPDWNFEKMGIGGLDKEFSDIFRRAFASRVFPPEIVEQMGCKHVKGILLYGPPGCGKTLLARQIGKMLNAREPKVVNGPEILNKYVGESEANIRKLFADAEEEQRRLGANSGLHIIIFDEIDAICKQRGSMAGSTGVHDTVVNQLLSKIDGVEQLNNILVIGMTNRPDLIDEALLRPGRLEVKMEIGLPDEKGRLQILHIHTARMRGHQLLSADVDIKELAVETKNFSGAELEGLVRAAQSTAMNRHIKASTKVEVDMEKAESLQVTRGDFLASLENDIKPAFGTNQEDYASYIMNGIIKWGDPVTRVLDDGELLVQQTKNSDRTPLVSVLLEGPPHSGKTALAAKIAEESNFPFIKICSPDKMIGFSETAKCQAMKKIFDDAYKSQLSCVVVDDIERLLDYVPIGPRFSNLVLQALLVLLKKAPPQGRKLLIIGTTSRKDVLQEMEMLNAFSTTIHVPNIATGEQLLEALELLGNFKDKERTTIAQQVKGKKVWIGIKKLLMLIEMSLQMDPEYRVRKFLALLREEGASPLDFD

B1: αSNAP (Soluble NSF Attachment Protein alpha), rat, wild type (natural protein)
chain: MDTSGKQAEAMALLAEAERKVKNSQSFFSGLFGGSSKIEEACEIYARAANMFKMAKNWSAAGNAFCQAAQLHLQLQSKHDAATCFVDAGNAFKKADPQEAINCLMRAIEIYTDMGRFTIAAKHHISIAEIYETELVDVEKAIAHYEQSADYYKGEESNSSANKCLLKVAGYAAQLEQYQKAIDIYEQVGTSAMDSPLLKYSAKDYFFKAALCHFCIDMLNAKLAVQKYEELFPAFSDSRECKLMKKLLEAHEEQNVDSYTESVKEYDSISRLDQWLTTMLLRIKKTIQGDEEDLR
In the case of B1, the binding result was “binds”.
